Patent US20240218060A1

The substances below were run against human neonatal Fc-receptor (FcRn) (human) (UniProt P55899) (assay: FcRn affinity chromatography).
human neonatal Fc-receptor (FcRn) (human), sequence (P55899 24-297 limits assumed, chain 1 of 2): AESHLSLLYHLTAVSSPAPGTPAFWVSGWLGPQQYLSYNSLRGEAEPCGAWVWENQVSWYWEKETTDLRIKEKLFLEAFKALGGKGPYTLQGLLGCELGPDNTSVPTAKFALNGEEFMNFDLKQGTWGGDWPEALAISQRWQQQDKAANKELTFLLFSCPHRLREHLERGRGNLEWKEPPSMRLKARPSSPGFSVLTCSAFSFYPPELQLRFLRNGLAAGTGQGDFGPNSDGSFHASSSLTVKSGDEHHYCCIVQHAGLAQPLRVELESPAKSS
human neonatal Fc-receptor (FcRn) (human), sequence (P61769 21-119 limits assumed, chain 2 of 2, further chain): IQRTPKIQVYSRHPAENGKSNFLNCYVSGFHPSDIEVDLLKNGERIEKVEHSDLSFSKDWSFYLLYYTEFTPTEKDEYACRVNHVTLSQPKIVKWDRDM

Q: How did the FcRn-affinity column retention time turn out when “IgG1 Fc-region molecule with L234A/L235A/P329G and Y436A (symmetric)” was run?
A: Its FcRn-affinity column retention time is 41.3 min.

What follows are substances tested against human neonatal Fc-receptor (FcRn) (human) (UniProt P55899) (assay: FcRn affinity chromatography, anti-HER2 antibody).

Q: With anti-HER2 antibody, symmetric E258H as the substance, how does the retention time on FcRn affinity column read?
A: The retention time on FcRn affinity column was 45.6 min.

Q: For anti-HER2 antibody, symmetric E430H, which retention time on FcRn affinity column is on record?
A: The retention time on FcRn affinity column was 46.4 min.

Q: With anti-HER2 antibody, symmetric K288E as the substance, how does the retention time on FcRn affinity column read?
A: The retention time on FcRn affinity column was 45.2 min.

Q: With anti-HER2 antibody, symmetric K290H as the substance, how does the retention time on FcRn affinity column read?
A: Its retention time on FcRn affinity column is 46.2 min.

Q: anti-HER2 antibody, symmetric K317H was tested. Which retention time on FcRn affinity column did it give?
A: The retention time on FcRn affinity column was 46.3 min.

Q: anti-HER2 antibody, symmetric L309H was tested. Which retention time on FcRn affinity column did it give?
A: Its retention time on FcRn affinity column is 45.5 min.

Q: With anti-HER2 antibody, symmetric N434H as the substance, how does the retention time on FcRn affinity column read?
A: Its retention time on FcRn affinity column is 52 min.

Q: For anti-HER2 antibody, symmetric Q311H, which retention time on FcRn affinity column is on record?
A: The retention time on FcRn affinity column was 46.3 min.

Q: For anti-HER2 antibody, symmetric R255D, which retention time on FcRn affinity column is on record?
A: Its retention time on FcRn affinity column is 41.4 min.

Q: anti-HER2 antibody, symmetric T256H was tested. Which retention time on FcRn affinity column did it give?
A: Its retention time on FcRn affinity column is 46 min.

Q: How did the retention time on FcRn affinity column turn out when anti-HER2 antibody, wild-type was run?
A: The retention time on FcRn affinity column was 46.3 min.

Each substance was assayed against human neonatal Fc-receptor (FcRn) (human) (UniProt P55899) (assay: FcRn affinity chromatography, bispecific KiH antibody).

Q: How did the retention time on FcRn affinity column turn out when “bispecific antibody (knobs-into-holes), one chain with H310A” was run?
A: The retention time on FcRn affinity column was 48.4 min.

Q: How did the retention time on FcRn affinity column turn out when “bispecific antibody (knobs-into-holes), one chain with H310A/H433A/Y436A” was run?
A: Its retention time on FcRn affinity column is 46.7 min.

Q: Which retention time on FcRn affinity column does the source give for “bispecific antibody (knobs-into-holes), one chain with H435A” here?
A: Its retention time on FcRn affinity column is 48.8 min.

Q: “bispecific antibody (knobs-into-holes), one chain with I253A” was tested. Which retention time on FcRn affinity column did it give?
A: Its retention time on FcRn affinity column is 48.8 min.

Q: For “bispecific antibody (knobs-into-holes), one chain with L251D/L314D/L432D”, which retention time on FcRn affinity column is on record?
A: Its retention time on FcRn affinity column is 46.3 min.

Q: “bispecific antibody (knobs-into-holes), one chain with M252Y/S254T/T256E” was tested. Which retention time on FcRn affinity column did it give?
A: The retention time on FcRn affinity column was 56.2 min.

What follows are substances tested against human neonatal Fc-receptor (FcRn) (human) (UniProt P55899) (assay: FcRn affinity chromatography of a knobs-into-holes bispecific antibody).

Q: “bispecific antibody (knobs-into-holes), first chain I253A/H310A/H435A, second chain H310A” was tested. Which RT (Min) on the FcRn affinity column did it give?
A: Its RT (Min) on the FcRn affinity column is 0 min.

Q: “bispecific antibody (knobs-into-holes), first chain I253A/H310A/H435A, second chain H435A” was tested. Which RT (Min) on the FcRn affinity column did it give?
A: The RT (Min) on the FcRn affinity column was 0 min.

Q: For “bispecific antibody (knobs-into-holes), first chain I253A/H310A/H435A, second chain I253A/H310A/H435A”, which RT (Min) on the FcRn affinity column is on record?
A: Its RT (Min) on the FcRn affinity column is 0 min.

Q: For “bispecific antibody (knobs-into-holes), one chain with H310A”, which RT (Min) on the FcRn affinity column is on record?
A: The RT (Min) on the FcRn affinity column was 48.4 min.

Q: For “bispecific antibody (knobs-into-holes), one chain with H435A”, which RT (Min) on the FcRn affinity column is on record?
A: The RT (Min) on the FcRn affinity column was 48.8 min.

Q: How did the RT (Min) on the FcRn affinity column turn out when “bispecific antibody (knobs-into-holes), one chain with I253A” was run?
A: Its RT (Min) on the FcRn affinity column is 48.8 min.
